Measurements: patent US20250296973A1, “TREATMENT METHOD USING MAZDUTIDE” (Innovent Biologics (Suzhou) Co., Ltd., priority 2022, published 2025)
Starred links: 1 amine or outer side, 2 acyl side, 3 side chain; linkers in the order of their positions; H or OH if unused. Non-standard residues stand in square brackets, D forms with d. Groups on a side chain read outwards from the residue. No end group written: not given here. *: point of attachment. C20 diacid = O=C(O)CCCCCCCCCCCCCCCCCCC(=O)*; γGlu = O=C(O)[C@H](CCC(=O)[*:2])N[*:1]; AEEA = NCCOCCOCC(=O)O; Aib = CC(C)(N)C(=O)O

Columns and labels:
[1] = Clinical trial of mazdutide dosing regimen (Example 1, 5 cohorts, overweight or obese subjects); assay type: in vivo, human; conditions: for least squares mean of percent change from baseline in body weight: sc once weekly, after 12 weeks
Excerpt: The contents in the vial were reconstituted in sterile water for injection to give a clear solution of mazdutide.
• 1. Aged 18-75 years (inclusive), male or female. • 2. For obesity, BMI≥28.0 kg/m^2; for overweight, 24≤BMI<28.0 kg/m^2 with at least one of the following: i, increased appetite, intolerable hunger before meals, and increased food consumption; ii, comorbidity with one or more of pre-diabetes (impaired fasting glucose and/or impaired glucose tolerance), hypertension, dyslipidemia, and fatty liver (within 6 months before the screening); iii, comorbidity with weight-bearing joint pain; iv, obesity-related dyspnea or obstructive sleep apnea syndrome. • 3. Weight change <5% after at least 12 weeks of diet/exercise weight control alone at the time of screening.
• 1. Use of any of the following drugs or treatments before the screening: • 1) previous use of either GLP-1 receptor (GLP-1R) agonists or GLP-1R/GCGR agonists; • 2) use of drugs that may have an effect on body weight within 3 months before the screening, including: systemic steroid hormone therapy (intravenous, oral, or intraarticular administration), metformin, SGLT2 inhibitors, thiazolidinediones (TZD), tricyclic antidepressants, psychotropic agents, or sedatives (e.g., imipramine, amitriptyline, mirtazapine, paroxetine, phenelzine, chlorpromazine, thioridazine, clozapine, olanzapine, valproic acid, valproic acid derivatives, and lithium salts), and the like; • 3) use of Chinese herbal medicines or health care products that may have an effect on body weight within 3 months before the screening; • 4) previous or current use of weight-loss drugs within 3 months before the screening, such as: sibutramine hydrochloride, orlistat, phentermine, phenylpropanolamine, mazindol, phentermine, amfepramone, lorcaserin, compounded phentermine/topiramate, compounded […], etc.; • 5) participation in other clinical trials (reception of the test drug treatment) within 3 months before the screening. • 2. […] Alcohol abuse is defined as: over 21 units for men or over 14 units for women weekly on average, or unwillingness to cease drinking within 24 hours before dosing and throughout the study period (one unit=360 mL of beer, or 150 mL of wine, or 45 mL of distilled spirits); • 21) drug abuse and positivity in a urine test for drugs at the time of screening. • 3. Any one of the laboratory tests meets the following criteria (those of proper reasons at the time of screening can be re-examined within one week, and the reason for retesting should be documented by the investigator): • 1) serum calcitonin ≥15 ng/L at the time of screening; • 2) at the time of screening, alanine aminotransferase ≥2.0×ULN and/or aspartate aminotransferase ≥2.0×ULN and/or total bilirubin ≥1.0×ULN and/or alkaline phosphatase ≥2.0×ULN; • 3) glomerular filtration rate eGFR<60 mL/min/1.73 m^2 at the time of screening, as estimated using the CKD-EPI equation; • 4) abnormal thyroid function (FT3, FT4, or TSH) at the time of screening; • 5) fasting triglyceride >5.64 mmol/L (500 mg/dL) at the time of screening: if the patient is receiving a lipid-regulating treatment, the dose of the treatment must be stable for 30 days before the screening; • 6) blood amylase or lipase >2.0×ULN at the time of screening; • 7) an international normalized ratio (INR) of prothrombin time greater than the upper limit of the normal range at the time of screening. • 4. Heart rate <50 beats/min or >90 beats/min as measured by 12-lead electrocardiogram (ECG) at the time of screening. • 5. Clinically significant abnormality in 12-lead ECG at the time of screening: atrioventricular block degree II or degree III, long QT syndrome or QTcF>450 ms (see Attachment 3 for the formula), PR interval <120 ms or PR interval >220 ms, QRS>120 ms, left or right bundle branch block, pre-excitation syndrome or severe arrhythmia requiring treatment in the absence of cardiac pacemaker. • 6. […]

[2] = 3.0-6.0-9.0 mg QW sc, after 24 consecutive weeks

mazdutide (H[Aib]QGTFTSDYSKYLDEKKAK([AEEA-AEEA-γGlu-C20 diacid])EFVEWLLEGGGPSSG-NH2; N-terminus assumed; SMILES CC(C)C[C@H](NC(=O)[C@H](CC(C)C)NC(=O)[C@H](Cc1c[nH]c2ccccc12)NC(=O)[C@H](CCC(=O)O)NC(=O)[C@@H](NC(=O)[C@H](Cc1ccccc1)NC(=O)[C@H](CCC(=O)O)NC(=O)[C@H](CCCCNC(=O)COCCOCCNC(=O)COCCOCCNC(=O)CC[C@H](NC(=O)CCCCCCCCCCCCCCCCCCC(=O)O)C(=O)O)NC(=O)[C@H](C)NC(=O)[C@H](CCCCN)NC(=O)[C@H](CCCCN)NC(=O)[C@H](CCC(=O)O)NC(=O)[C@H](CC(=O)O)NC(=O)[C@H](CC(C)C)NC(=O)[C@H](Cc1ccc(O)cc1)NC(=O)[C@H](CCCCN)NC(=O)[C@H](CO)NC(=O)[C@H](Cc1ccc(O)cc1)NC(=O)[C@H](CC(=O)O)NC(=O)[C@H](CO)NC(=O)[C@@H](NC(=O)[C@H](Cc1ccccc1)NC(=O)[C@@H](NC(=O)CNC(=O)[C@H](CCC(N)=O)NC(=O)C(C)(C)NC(=O)[C@@H](N)Cc1c[nH]cn1)[C@@H](C)O)[C@@H](C)O)C(C)C)C(=O)N[C@@H](CCC(=O)O)C(=O)NCC(=O)NCC(=O)NCC(=O)N1CCC[C@H]1C(=O)N[C@@H](CO)C(=O)N[C@@H](CO)C(=O)NCC(N)=O)
TEAEs resulting in permanent drug withdrawal ([1]; all 5 cohorts): no TEAEs resulting in permanent drug withdrawal occurred | severe TEAEs ([1]; all 5 cohorts): no severe TEAEs were reported | severe hypoglycemic events ([1]; all 5 cohorts): no severe hypoglycemic events occurred | severity of treatment emergent adverse events (TEAEs) ([1]; all 5 cohorts): Most treatment emergent adverse events (TEAEs) were mild | treatment emergent serious adverse events (TESAEs) ([1]; all 5 cohorts): no treatment emergent serious adverse events (TESAEs) occurred | least squares mean of percent change from baseline in body weight ([1]; cohort 2: 1.5 mg 4 wk + 3.0 mg 4 wk + 4.5 mg 4 wk): −6.40% | least squares mean of percent change from baseline in body weight ([1]; cohort 3: 2.0 mg 4 wk + 4.0 mg 4 wk + 6.0 mg 4 wk): −6.05% | least squares mean of percent change from baseline in body weight ([1]; cohort 5: 3.0 mg 4 wk + 6.0 mg 4 wk + 9.0 mg 4 wk): −11.7% | weight loss effect at week 12 in indirect comparison with similar drugs ([1]; cohort 5 regimen vs 2.4 mg Semaglutide and 10 mg or 15 mg Tirzepatide regimens, FIG. 6): particularly pronounced weight loss effect | improvement of blood pressure, blood lipid and serum uric acid levels ([1]; different doses in 5 cohorts, FIGS. 3-5 for cohorts 4 and 5): good beneficial effects | subjects with body weight reduced by at least 5% from baseline [2]: 81.7% | subjects with body weight reduced by at least 10% from baseline [2]: 65.0% | subjects with body weight reduced by at least 15% from baseline [2]: 31.7% | subjects with body weight reduced by at least 20% from baseline [2]: 21.7% | dropout rate of the treatment group (human, in vivo): lower than that of the placebo group overall | early termination of treatment due to adverse events (human, in vivo): no subject in the treatment group has terminated treatment in advance due to adverse events | most common treatment emergent adverse events (human, in vivo): gastrointestinal-related adverse events | serious adverse events (human, in vivo): no serious adverse event has occurred
